Data: the RNAGym collection of RNA variant scans (doi:10.1073/pnas.2313332121)
Fewer inactive variants are shown than the library holds.

B1: TPR 5TU (parent)
chain: GGAUCUUCUCGAUCUAACAAAAAAGACAAAUCUGCCACAAAGCUUGAGAGCAUCUUCGGAUGCAGAGGCGGCAGCCUUCGGUGGCGCGAUAGCGCCAACGUUCUCAACUAUGACACGCAAAACGCGUGCUCCGUUGAAUGGAGUUUAUCAUG

Variants of: B1
Assay: polymerase ribozyme fitness, log enrichment relative to wild type (log ratio); higher = more active; in vitro selection for triplet polymerase activity
Outline: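 Fitness measures genotype enrichment against wild-type enrichment on a logarithmic scale, with inverse-variance-weighted averaging of replicates. The logarithm is base 2, and genotypes were kept only with ≥10 input reads and ≥1 read per output in Illumina sequencing. The sequenced libraries came from one triplicate in vitro selection round, including frozen incubation at −7 °C, of PCR-built, transcribed mutant libraries of each subunit of a heterodimeric triplet polymerase ribozyme.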
In the case of GGAUCUUCACGAGCUAACAAAAAAGACAAAUCUGCCACAAAUCUUGAGAGCAUCUUCGGAAGCAGAGGCGGCAGCCUUCGGUGGCGCGAUUGCGCCAACGUUCUCGACUAUGACACGCAAAACGCGUGCUCCGUUGAAUGGCGUUUAUCAUG [U9A U13G G42U U61A A91U A106G A142C], the “polymerase ribozyme fitness (log ratio)” value is reported as no more than -4.2. For GGAUCUUCCCGAUCUAACAAACAAGACAAAUCUGCCACAAAGCUUGAGAGCAUUUUUGGAUGCAGAGGCGGCAGCCUUCGGUGGCGCGAUAGCGCCAACUUUCUGAACUAUGACACGCAAAACGCGUGCUCCGUUGAAUGGAGUUUAUCAUG [U9C A22C C54U C57U G100U C105G], the “polymerase ribozyme fitness (log ratio)” value was no more than -4.2. With GGAUCUUCACAAUUUAACGAAAAAGACAAAUCUGCCACAAAGCUUGAGAGCAUCUUCGGAUGCAGAGGCGGCAGCAUUCGGGGGCGCGAUAGCGCCAACGUUAUCAACUAUGACAUGCAAAACGCGUGCUCCGUUGAAUGGAGUUUAUCAUG [U9A G11A C14U A19G C76A U82G C103A C116U] the “polymerase ribozyme fitness (log ratio)” value was no more than -4.2. For GGAUCUUCACGAUCCAACAAAAAAGACAAAUCUGUCACAAAGCUUGAGAGCAUCUUCGGAUGCAGAGGCGAUAGCCGUCGGUGGCGAGAUAGCGCCAACGUUCUCAACUAUGACACGCUAAACCCGUGCUCCGUUGAAUGGAGUUUAUCAUG [U9A U15C C35U G71A C72U U77G C87A A119U G124C], the “polymerase ribozyme fitness (log ratio)” value was no more than -4.2. With GGAUCUUCACGAUCUAACAAAAAAGACAAAUCUGCCACAAAGCUUGAGAACAUCUUCGGAUGCAGAGGCGGCAGCCUUCGGUGGCGCGAUAGCUCCAACGUUCUCAACUAUGACACGCAAAACGCGUGCUCCGUUGAAUGGAGUUUAUCAUG [U9A G50A G94U] the “polymerase ribozyme fitness (log ratio)” value was no more than -4.2. In the case of GGAUCUUCACGAUCUAACAAAAAAGACAAAUCUGCCACAAAGCUUGAGAGCAUCUUCGGAUGCAGAGGCGGCAGCCUUCGGUGGCGCGAUAGAGCCAACGUUCUCAACUAUGACACGCAAAACGCGUGCUCCGUUGAAUGGAGUUUAUCAUG [U9A C93A], the “polymerase ribozyme fitness (log ratio)” value is reported as -3.87. For GGAUCUUCACGAUCUAACAAAAAAGACAAAUCUGCCACAAAGCUUGAGAGCAUCUUCGGAUGCAGAGGCGGCAGCCUUCGGUGGCGCGAUAGCGCCAACGUUCUCAACUAUGACACGCAAAACGGGUGCUCCGUUGAAUGGAGUUUAUCAUG [U9A C125G], the “polymerase ribozyme fitness (log ratio)” value was no more than -4.2. In the case of GGAUCUUCACGAUCUAACAAAAAAGACAAAUCUGCCACAAAGCUUGAGAGCAUCUUCGGAUGCAGAGGCGGCAGCCUUCGGUGGCGCGAUAGCGCUAACGUUCUCAACUCUGACACGCAAAACGCGUGCUCCGUUGAAUGGAGUUUAUCAUG [U9A C96U A110C], the “polymerase ribozyme fitness (log ratio)” value is reported as no more than -4.2. With GGAUCUUCACGAUCUAACAAAAAAUACAAAUCUGCUACAAAGCUUGAGACCAUCUUCGGAUGCAGAGGCGGCAGCCUUCGGUGGCACGAUAGCGCCAACGUUCUCAACUAUGACACGCAAAACGCGUGCUCCGUUGAAUGGAGUUUAUCAUG [U9A G25U C36U G50C G86A] the “polymerase ribozyme fitness (log ratio)” value was no more than -4.2. In the case of GGAUCUUCACGAUCUAACAAAAAAGACAAAGCUGCCACAAAGCUUGAGAGCAGCUUCGGAUGCAGAGGCGGCAGCCUUCGGUGGCGCAAUAGCGCCAACGUUCUCAACUAUGACACGCAAAACGCUUGCUCCGUUGAAUGGAGUUUAUCCUG [U9A U31G U53G G88A G126U A150C], the “polymerase ribozyme fitness (log ratio)” value is reported as no more than -4.2. With GGAUCUUCACGAUCAAACAAAAAAGACAAAUCUGCCACAAAGCUUGACAGGAUCUUCGGAUGCAGAGGCGGCAGCCUUCGGUGACGCGAUAGCGCCAACGUUCUCAACUAUGACACGCAAAACGCGUGCUCCGUUGAAUGGAGUUUAUCAUG [U9A U15A G48C C51G G84A] the “polymerase ribozyme fitness (log ratio)” value was no more than -4.2. With GGAUCUUCCCGGUCUAACAAUAAAGACAAAUCUGCCACAAAUCUUGAGAGGAACUUCGGAUGCAGAGGCGGCAGCCUUCGGUGGCGCGAUAGCGCAAACGUUCUCAACUAUGACACGCAAAACGCGUGCUCCGUUGAAUGGAGUUUAUCAUG [U9C A12G A21U G42U C51G U53A C96A] the “polymerase ribozyme fitness (log ratio)” value was no more than -4.2. In the case of GGAUCUUCACGAUCUAACAAAAAAGACAAAUCUGCCACAAAGCUUGAGAGCAUCGUCGGAUGCAGAGGCGGCAGCCUGCGGUGGCGCGAUAGCGCCAACGUUCUCAACUAUGACACGCAAAACGCGUGCUCCGUUGAAUGGACUUUAUCAUG [U9A U55G U78G G143C], the “polymerase ribozyme fitness (log ratio)” value is reported as no more than -4.2. For GGAUCUUCCCGCUCUAACAAAAAAGACAAAUCUGCCACAAAGCUUGAGAGCAUCUUUGGAUGUAGAGGCGGCACCCUUCGGUGGCGCGAUAGCGCCAACGUUCUCAACUAUGACACGCGAAACGCGUGCUCCGUUGAAUGGAGUUGAUCAUG [U9C A12C C57U C63U G74C A119G U146G], the “polymerase ribozyme fitness (log ratio)” value was no more than -4.2. For GGAUCUUCCCGAUCUGACAAAAAAGACAAAUCUGCCACAAAGCGUGAGGGCAUCUUCGGAUGCGGAGGCGGCAGCCUUCGGUGGCGCGAUAGCGCCAACGUUCUGAACUAUGACACGCAAAACACGUGCUCCGUUGAAUGGAGUUUAUCAUG [U9C A16G U44G A49G A64G C105G G124A], the “polymerase ribozyme fitness (log ratio)” value was no more than -4.2. In the case of GGAUCUUCACGAUCUAACAAAAAAGACAAAUCUGCCACAAAGCUUGAGAGCAUCUUCGGAUGCAGAGGCGGCAGCCUUCGGUGGCGCGAUAGCGCCAACGUUCUCAACUAUGACACGCAAAACGCGUGCUCCGUUGAAUGCAGUUUAUCAUG [U9A G141C], the “polymerase ribozyme fitness (log ratio)” value is reported as -3.23. For GGAUCUUCACGAUCUAACAAAAAAGACAAAUCUGCCACAAAGCUUGAGAGCAUCUUCGGAUGCAGAGGCGGCAGCCUUCGGUGGCGCGAUAGCGCCAACGUUCUCAACUAUGACACGCAAAACGCGUGCUCCGUUGAAUGAAGUUUAUCAUG [U9A G141A], the “polymerase ribozyme fitness (log ratio)” value was -2.94. For GGAUCUUCACGAUCUAACAAAAAAGACAAAUCUGCCACAAAGCUUGAGAGCAUCUUCGGAUGCAGAGGCGGCAGCCUUCGGUGGAGCGACAGCGCCAACGUUCACAACUAUGACACGCAAAACGCGGGCUCCGUUGAAUAGAGUUUAUCAUG [U9A C85A U90C U104A U127G G140A], the “polymerase ribozyme fitness (log ratio)” value was no more than -4.2. For GGAUCUUCACGAGCUAACAAAAAAGACAAAUGUGCCACAAAGCUUGAGAGGAUCUUCGGAUGCAGAGGCUGCAGCCUUCGGUGGCGCGAUAGCGCCAACGUUCUCAACUAUGACACGCAAAACGCGGGCUCCGUUGAAUGGAGUUUAUCAUG [U9A U13G C32G C51G G70U U127G], the “polymerase ribozyme fitness (log ratio)” value was no more than -4.2.
